Positions count from the first letter of the chain named.
Key:
[1] = biological target: T1, cynomolgus monkey ST2 (SPR analyte) (cynomolgus monkey, UniProt Q01638 19-322 (human entry)); experiment: SPR ProteOn XPR-36, captured antibody, ST2 analyte, 25 C
T1 construct: The cyno ST2 reagent injected in SPR; leader is 1-18; also called cy ST2
T1 chain: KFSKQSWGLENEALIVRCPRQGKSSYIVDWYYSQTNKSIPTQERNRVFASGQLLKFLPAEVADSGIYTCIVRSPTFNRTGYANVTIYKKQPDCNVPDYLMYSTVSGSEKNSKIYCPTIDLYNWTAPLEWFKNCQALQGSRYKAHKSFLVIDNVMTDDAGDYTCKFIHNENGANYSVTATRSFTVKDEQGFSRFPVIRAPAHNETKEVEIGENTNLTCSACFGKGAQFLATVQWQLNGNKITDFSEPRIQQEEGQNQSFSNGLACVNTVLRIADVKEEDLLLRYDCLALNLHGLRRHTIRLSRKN

human ST2 (SPR analyte) [2] = biological target: T2, human ST2 (SPR analyte) (human, UniProt Q01638 19-322); experiment: as above
T2 construct: The ST2 reagent injected in SPR; leader is 1-18; also called hu ST2
T2 sequence: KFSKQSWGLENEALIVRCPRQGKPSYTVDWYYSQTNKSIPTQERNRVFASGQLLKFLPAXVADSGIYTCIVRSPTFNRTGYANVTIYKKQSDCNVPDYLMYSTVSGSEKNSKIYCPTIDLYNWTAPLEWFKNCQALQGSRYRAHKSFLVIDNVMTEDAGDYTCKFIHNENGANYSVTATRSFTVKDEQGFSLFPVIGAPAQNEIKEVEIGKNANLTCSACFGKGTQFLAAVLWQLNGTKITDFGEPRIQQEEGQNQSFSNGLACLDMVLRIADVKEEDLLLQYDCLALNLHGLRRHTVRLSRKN

[3] = biological target: T1, cynomolgus monkey ST2 (SPR analyte); experiment: SPR Biacore 3000, captured antibody, ST2 analyte, 25 C
human ST2 (SPR analyte) [4] = biological target: T2, human ST2 (SPR analyte); experiment: as above
[5] = biological target: T3, human ST2 on human primary cells (human, UniProt Q01638 19-556); experiment: cell-based or functional assay
T3 sequence: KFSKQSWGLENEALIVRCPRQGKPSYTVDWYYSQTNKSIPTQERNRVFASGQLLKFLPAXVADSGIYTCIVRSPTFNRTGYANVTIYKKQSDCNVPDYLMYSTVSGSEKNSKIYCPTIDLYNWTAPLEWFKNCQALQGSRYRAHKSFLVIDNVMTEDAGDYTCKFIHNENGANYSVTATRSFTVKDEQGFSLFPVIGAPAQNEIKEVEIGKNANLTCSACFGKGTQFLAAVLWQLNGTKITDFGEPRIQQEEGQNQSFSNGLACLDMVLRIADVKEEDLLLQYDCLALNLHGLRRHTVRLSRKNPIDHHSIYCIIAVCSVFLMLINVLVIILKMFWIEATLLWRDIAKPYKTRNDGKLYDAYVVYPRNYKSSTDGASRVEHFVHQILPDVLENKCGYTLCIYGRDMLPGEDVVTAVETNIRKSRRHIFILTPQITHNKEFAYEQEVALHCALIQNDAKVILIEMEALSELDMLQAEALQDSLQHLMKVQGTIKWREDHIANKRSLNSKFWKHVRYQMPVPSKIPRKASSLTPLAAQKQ

[6] = biological target: T4, biotinylated human ST2-Fc (human, UniProt Q01638 19-331, biotinylated); experiment: AlphaScreen, IL-33 mediated association of biotinylated human ST2-Fc with human AcP-FH, antibody at 12.5 ug/ml
T4 construct: also called ST2-Fc fusion protein; not shown: human antibody Fc domain
T4 sequence: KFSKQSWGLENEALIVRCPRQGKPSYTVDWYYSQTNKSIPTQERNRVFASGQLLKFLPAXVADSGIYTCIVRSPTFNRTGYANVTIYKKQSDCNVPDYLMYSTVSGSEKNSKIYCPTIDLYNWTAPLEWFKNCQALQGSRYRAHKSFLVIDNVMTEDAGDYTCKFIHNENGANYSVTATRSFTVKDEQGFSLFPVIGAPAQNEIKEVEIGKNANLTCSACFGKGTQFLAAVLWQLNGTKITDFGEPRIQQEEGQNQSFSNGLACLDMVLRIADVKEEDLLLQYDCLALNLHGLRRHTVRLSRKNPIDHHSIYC
Experimental: In the second assay, antibodies were evaluated for the ability to inhibit the IL-33 mediated association of ST2 with the co-receptor AcP. […] The ST2/AcP AlphaScreen was conducted in 8 ul reactions in a 384 well optiplate (Perkin Elmer). […] After the addition of all assay components the plates were incubated overnight in the dark at room temperature. The next day the plates were read on a 2103 Envision multilable reader (Perkin Elmer) using the same parameters as above for the first assay.

human ST2 (SPR analyte) [7] = biological target: T2, human ST2 (SPR analyte); experiment: SPR Biacore 4000, kd at pH 5.5 against kd at pH 7.4
Experimental: (§1) The association (5 min) rates at pH 7.4 and dissociation (10 min) rates at pH 5.5 and 7.4 were monitored at a flow rate of 30 uL/min. The reference subtracted data was fit to a 1:1 model in Scrubber.

[8] = biological target: T3, human ST2 on human primary cells; experiment: cell-based or functional assay; remark: listed apart in the source
[9] = biological target: T5, cynomolgus monkey ST2 on cynomolgus CD4+ T cells (cynomolgus monkey, UniProt Q01638 19-556 (human entry)); experiment: cell-based or functional assay
T5 chain: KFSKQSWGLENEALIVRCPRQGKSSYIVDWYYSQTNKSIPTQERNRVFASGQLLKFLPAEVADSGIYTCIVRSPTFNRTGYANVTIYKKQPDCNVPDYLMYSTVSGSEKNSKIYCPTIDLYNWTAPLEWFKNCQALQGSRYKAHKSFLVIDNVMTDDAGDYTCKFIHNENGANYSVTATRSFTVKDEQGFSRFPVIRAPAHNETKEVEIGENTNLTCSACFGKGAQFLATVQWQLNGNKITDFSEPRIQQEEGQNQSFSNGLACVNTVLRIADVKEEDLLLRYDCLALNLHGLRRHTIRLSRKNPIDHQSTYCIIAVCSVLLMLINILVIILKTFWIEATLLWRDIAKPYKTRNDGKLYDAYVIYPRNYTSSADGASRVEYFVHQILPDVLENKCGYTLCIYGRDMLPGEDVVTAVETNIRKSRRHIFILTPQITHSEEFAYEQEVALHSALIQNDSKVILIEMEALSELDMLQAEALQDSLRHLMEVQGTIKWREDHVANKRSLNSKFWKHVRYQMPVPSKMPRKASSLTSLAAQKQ

[10] = biological target: T6, soluble human ST2-FLAG His (human, UniProt Q01638 19-322, limits assumed); experiment: AlphaScreen, biotinylated human IL-33 with human ST2-FH, antibody at 12.5 ug/ml
T6 construct: also called human ST2-FH; 6xhistidine tagged human ST2; not shown: FLAG and 6x histidine tags
T6 sequence: T2 sequence

human ST2 (SPR analyte) [11] = biological target: T2, human ST2 (SPR analyte); experiment: SPR Biacore 4000, association at pH 7.4, dissociation at pH 7.4 (estimated kd)
Experimental: as §1

[12] = biological target: T3, human ST2 on human primary cells; experiment: cell-based or functional assay; remark: listed apart in the source
human ST2 (SPR analyte) [13] = biological target: T2, human ST2 (SPR analyte); experiment: SPR Biacore 4000, association at pH 7.4, dissociation at pH 5.5 (estimated kd)
Experimental: as §1

B1: Ab32 (antibody, human IgG2, kappa, V domains shown)
VH: EVQLVESGGGLVQPGGSLRLSCAASGFTFSTFDMHWVRQATGKGLEWVSSIDTEGDTYYSGSVKGRFTISRENARNSLYLQMNSLRAGDTAVYYCTRGEDWSDDDYYYGLDVWGQGTTVTVSS
VL: NIVMTQTPLSLSVTPGQPASISCKSSQSLLHSDGKTYLFWYLQKPGQPPQLLIYGVSNRFSGVPDRFSGSGSGTDFTLKISRVEAEDVGVYYCMQSLQLFTFGPGTKVEIKR
notes: fully human anti-ST2 antibody
[1]
  Kd: 0.0558 nM
Human ST2 (SPR analyte) [2]
  Kd: 0.0602 nM

B2: Ab33 (antibody, human IgG2, kappa, V domains shown)
VH: B1 VH with A40V, T41P, V48I, S60P
VL: B1 VL with Y92S, E109D
notes: fully human anti-ST2 antibody
[1]
  Kd: 0.0776 nM
Human ST2 (SPR analyte) [2]
  Kd: 0.0844 nM

B3: Ab2 (antibody, human IgG2, kappa, V domains shown)
VH: EVQLVQSGAEVKKPGESLKISCKGSGYSFTNYWIGWVRQMPGKGLEWMGIIYPGNSDTRFSPSFQGQVTISADKSITTAYLQWSSLKASDTAMYYCARHGTSSDYYGLDVWGQGTTVTVSS
VL: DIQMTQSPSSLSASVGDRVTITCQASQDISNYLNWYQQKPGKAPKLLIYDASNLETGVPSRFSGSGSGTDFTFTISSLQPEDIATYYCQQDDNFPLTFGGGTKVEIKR
notes: fully human anti-ST2 antibody
[3]
  Kd: 0.0322 nM
  koff: 1.16e-05 s⁻¹
  kon: 360000 M⁻¹ s⁻¹
Human ST2 (SPR analyte) [4]
  Kd: 0.0339 nM
  koff: 1.13e-05 s⁻¹
  kon: 333000 M⁻¹ s⁻¹
[5]
  IC50 of inhibition of IL-33-dependent IFN-γ response of human NK cells (IL-33 10 ng/mL plus IL-12): 0.0412 µg/mL
[6]
  % inhib ST2-AcP AS 12.5 ug/ml: 96.4%
Human ST2 (SPR analyte) [7]
  pH 5.5/pH 7.4 koff fold change: 8 fold
[8]
  IC-50, human eosinophil IL-8 release assay (IL-33 and IL-3 stimulation): 52.8 pM
[9]
  IC-50, cynomolgus monkey CD4+ T cell IFNγ release assay (IL-33, IL-2 and IL-12p70 stimulation): 79.5 pM
[10]
  % inhib ST2-IL33 AS 12.5 ug/ml: 99.2%
Human ST2 (SPR analyte) [11]
  koff: 2.98e-05 s⁻¹
[12]
  IC50 of inhibition of human IL-33-induced IL-5 production from human CD4+ T cells: 5.25 nM
Human ST2 (SPR analyte) [13]
  koff: 0.000238 s⁻¹
